These results are taken from patent US20230088483A1, “USE OF R[…] GENE DERIVED PROTEIN OR FRAGMENT THEREOF” (priority 2020, published 2023).

Like-named read-outs stand apart in the source and are kept apart here.

The experiment concerns SARS-CoV-2 (C-Tan-nCoV Wuhan strain 01). It is filed as cell-based. To be noted: Vero cells; for Ct value: 100 PFU/well, medicine added 2 h after infection, supernatant at 24 h, qRT-PCR target ORF1a/b, control group Ct 22.6.

B1: Novaferon: Recombinant cytokine gene derived protein, an analog of interferon (SEQ ID NO: 1); applicant's product, Genova Biotech (Qingdao) Co., Ltd. (protein)
chain: CNLSQTHSLGSKRTLMLLAQMGKISLFSCLKDRHDFEFPQEEFDGNQFQKAQAISVLHELIQQTFNLFSTKESSAAWDEGLLDKFRTELYRQLNDLEACMMQEVGVEETPLMNADSILAVKKYFQRITLYLMEKKYSPCAWEVVRVEIMRSLSFSTNLQKRLRGKD
modifications: Amino Acid Sequences Synthesized by Chemical Means
As for B1, the Ct value is, setting by setting: (Novaferon 0.001 ng/mL) 22.645; (Novaferon 0.01 ng/mL) 22.685; (Novaferon 0.1 ng/mL) 22.815; (Novaferon 1 ng/mL) 23.665; (Novaferon 10 ng/mL) 29.025; (Novaferon 100 ng/mL) 27.625. Further, the “cytopathic effect (CPE)” value runs as follows: (medicine concentration 10 ng/mL) “no obvious cytopathic effect”; (medicine concentration 100 ng/mL) “no obvious cytopathic effect”. The “half maximal inhibitory concentration IC50 for the SARS-CoV-2 in vitro” value (preliminary calculation from inhibition rates based on Ct values) is 1.02 ng/mL.
